# Data from the DeepSol protein solubility set.
# Experiment: soluble on expression in E. coli; label from the status in PepcDB or PDB records
row,Sequence,soluble on expression in E. coli
1,NYAPAVAEAFYRGIPLVAVTADRPAEWIDQDEGQTIRQEGAMAGFVKSYCSLRAEFDTSASAWYANRRLNEVLNHALMPRRGPVHINMSFCEPLYGTSSGYSGKERAITFVRERQELPEEVWDMLVKRFLEAPRVMIVAGFYPPDEDVSAALQDICKFPHTVLFAESLSNIRTDTGICTADRVLAAAGEDESLYPELLISFGGSLISRMLKTFLRRAKPAEHWGIDERFPAPDTFCALTHHICTGASGFWKEFAGRLKDKAPESLSPEGISYAGSWQKIKRKADLLHRTFMADAGWSDLKAFEVILRHIPHDAALHAANSTPVRYLQLFEHAHYAGGEWSNRGTNGIEGATSTAMGFSE,not soluble
2,MLTACNGSRKGDANLSDNPLLQSSALFMEAPEFDKIKTEHFLPAFEAGMEQQLAEIDSIVNNSEAPTFENTLVAMERSGQTLKRVSNVFFGLTGANTNDELQKIEEKVSPLLAAHSDAIYLNDKLFQRVKAVYESDQSAIEPEGQKLIQEYYDAFVRAGANLSAEDKAKLMELNKEEASLTTEFGNKLIAATNAAAVIVGSKDSLDGLSETEIAKAASDAKAAGHEGKYLLNITNTTQQDYLSVLNDRTIRQRVLEASIHRTDKGDANDTQSIVLRLARLRAQKARLLGFPNYAAWKLQNQMANNPETVLAFVKSIATPYAPQAQKDAAELQAYARSKGFEGDLTAADWNYYADKLRKEKFGLDENEVKQYFVTDSVLKNGVFYAANKLYGLTFKERTDLPVYAEDVRVFDVIDQDGKQLALFYTDLYRRPTKSGGAWMSNWVDQSYLLNQKPVIYNVCNYAKGVDGQPSLINYDEVTTLFHEFGHALHGMFAAQQYPLLSGTNVARDFVEMPSQLNEHWAMDPEVFANYAKHWKTQEPMPAELVKKIQDASDFNQAYSMGENLAAVSLDQAWHTLTVEEAEAITDVAKFEEEALRKVGLYNPQIPPRYRSSYFRHIWSNGYASGYYAYLWTEVLDHNVYQWMVQNGGMTPQNGQRLRDMILSRGNTQDFNVIFTAFTGLQKPDIRDLLRARGLM,soluble
3,MSLAIRVVCISDTHDLKVDIPRGDILIHAGDLTDGGTVSDIQKQLDWLKEQPHPIKVVVAGNHDSWFDQKSRPEEDARSGAKPDMDGLIYLESGLTVQKVKGRTVNIFGVPDIPEIGPKEFAFQYATDNHPWLSKVPPQTDILVTHCPPKHHLDLGLGDSNLLREVWRVKPRLHVFGHVHCAYGKESVFFDNFQQTYERIMSRPRRGPILDFIPNEAWLDEGHHHHHH,not soluble
4,MSLKMKPPVEKNEYYDVTFEDLTHEGAGVAKVQGFPIFVPNALPEEKAQIKVTRVKKGFAFGRLIELKEESPHRTDAPCPIYKQCGGCQLQHMTYEGQLLFKQKQVKDVLERIGKLDLSKVTVHPTLGMEDPWNYRNKAQVPVGEREGGLVAGFYQQRSHDIIDMSACLIQQSKNDEAVQAVKDICANYGVKAYNEERHKGWLRHIMVRYGVVTGEMMIVFITRTSDFPHKAKIIEDITAQFPHVKSIVQNINPNKTNVIFGNETNVIWGEEYIYDLIGDVKFAISARSFYQVNPEQTKVLYDKALEYAELQGEETVIDAYCGIGTISLFLAKQAKKVYGVEIVPEAIEDAKRNAELNGNTNAEFAVGEAETVIPKWYEEGITADTLVVDPPRKGCDEALLRTIVEMKPKRVVYVSCNPGTLARDLRVLEDGGYVTREVQPVDMFPHTNHVECCVLIKLKEEGHHHHHH,soluble
5,MGSDKIHHHHHHMSQAKATFSTEHDLNTSEQQAFWQSVVQDTLITADGITLAYMMVKHPQAHTAIVLSSGRVESYLKYQELVFDLYQQGYSVYAIDHRGQGLSDRMTINPHMGHVRRFNDYIDDFALFMQKKVLPQNDKQLMLLGHSMGGAIGTLYLKQHPDIFTAAAFSAPMYGIKLPMPKAFVRWLASKLDTTLNGGEPNYVLGGQNYKPVPFKGNELTHCQSRYQAYRDLYDAAPKLQLGSPTNRWLTESLDAADTCVLATAQIRTPILILQASEDKIVDNAAQNLAVSTHCQLKVIAGAAHEIFMEKDAYRNQALNYALDFFKRFAIKDEDKQAG,not soluble
6,FDAVPDLIAILDTEYRIVRANRAMAARLGITPEECVGLTCYRVIHGTDEPPSFCPYRQLLKDGIEHTEEVREDSLGGDFILSVLPLHDSKGKIIGCTHFARDIN,not soluble
7,MGSDKIHHHHHHMPKVEIAPSEIKIPDNVLKAKLGFGGAEEIPEEFRKTVNRAYEELLDAAKPVVLWRDFEVDGSLSFDDMRLTGELATKHLSGSKIITVFLATLGKKVDEKIEEYFRKGEDLLAFFIDGIASEMVEYALRKVDAELRMKRSNLEGSFRISPGYGDLPLSLNKKIAEIFKEEVDVNVIEDSYVLVPRKTITAFVGWREKNEKQT,soluble
